Assay [1] concerns the target human α5β1 integrin, full-length (Millipore CC1027) (human) (UniProt P08648). Description: BLI; inhibition: α5β1 integrin at 35.5 µg/mL preincubated one hour at room temperature with or without RGD peptide at 50 µg/mL, then LOXL2-coated AR2G sensor dipped in it; same buffer as the kinetics. In general terms: Biolayer interferometry detects binding as a change in optical thickness at a sensor tip.

Another assay has as its target T1, SPARC (UniProt P09486 18-303).
T1 construct: SPARC; also called immobilized SPARC
T1 sequence (looked up): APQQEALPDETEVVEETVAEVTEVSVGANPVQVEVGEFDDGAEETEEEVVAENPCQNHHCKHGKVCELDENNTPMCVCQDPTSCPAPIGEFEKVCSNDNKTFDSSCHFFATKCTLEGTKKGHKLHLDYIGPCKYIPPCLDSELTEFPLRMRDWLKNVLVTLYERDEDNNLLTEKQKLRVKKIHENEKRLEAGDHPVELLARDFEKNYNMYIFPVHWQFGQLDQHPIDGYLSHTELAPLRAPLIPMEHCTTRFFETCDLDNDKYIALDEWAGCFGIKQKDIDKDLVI
Description: SPR; BIAcore T100; ligands covalently immobilised by amine coupling on CM5 or CM3 (collagen XVII) sensor chips; LOXL2, SRCR 1-2 and SRCR 1-4 injected in 10 mM Hepes pH 7.4, 150 mM NaCl, 0.05% P20.

Assay [2] has as its target T2, human α5β1 integrin, full-length (Millipore CC1027) (human, UniProt P08648 42-1049; P05556 21-798).
T2 construct: integrin alpha-5 subunit of human α5β1 integrin; integrin beta-1 subunit of human α5β1 integrin; Used in buffer with 50 mM β-octyl-D-glucopyranoside, MgCl2 and MnCl2; The source is told for the BLI assays only; also called full-length α5β1 integrin; source: bought: Millipore, Merck, CC1027
Description: SPR; SPR imaging, BIAcore Flexchip; α5β1 integrin (29.3 µg/mL) as analyte recirculated over ECM arrays including spotted LOXL2; 10 mM Hepes pH 7.4, 150 mM NaCl, 50 mM β-octyl-D-glucopyranoside, 2 mM MgCl2, 2 mM MnCl2. The following applies: both partners purified.

The target in assay [3] is T2, human α5β1 integrin, full-length …. Description: BLI; inhibition: α5β1 integrin at 35.5 µg/mL preincubated one hour at room temperature with or without RGD peptide at 50 µg/mL, then LOXL2-coated AR2G sensor dipped in it; same buffer as the kinetics. The following applies: both partners purified.

T2 sequence (P08648 42-1049, chain 1 of 2): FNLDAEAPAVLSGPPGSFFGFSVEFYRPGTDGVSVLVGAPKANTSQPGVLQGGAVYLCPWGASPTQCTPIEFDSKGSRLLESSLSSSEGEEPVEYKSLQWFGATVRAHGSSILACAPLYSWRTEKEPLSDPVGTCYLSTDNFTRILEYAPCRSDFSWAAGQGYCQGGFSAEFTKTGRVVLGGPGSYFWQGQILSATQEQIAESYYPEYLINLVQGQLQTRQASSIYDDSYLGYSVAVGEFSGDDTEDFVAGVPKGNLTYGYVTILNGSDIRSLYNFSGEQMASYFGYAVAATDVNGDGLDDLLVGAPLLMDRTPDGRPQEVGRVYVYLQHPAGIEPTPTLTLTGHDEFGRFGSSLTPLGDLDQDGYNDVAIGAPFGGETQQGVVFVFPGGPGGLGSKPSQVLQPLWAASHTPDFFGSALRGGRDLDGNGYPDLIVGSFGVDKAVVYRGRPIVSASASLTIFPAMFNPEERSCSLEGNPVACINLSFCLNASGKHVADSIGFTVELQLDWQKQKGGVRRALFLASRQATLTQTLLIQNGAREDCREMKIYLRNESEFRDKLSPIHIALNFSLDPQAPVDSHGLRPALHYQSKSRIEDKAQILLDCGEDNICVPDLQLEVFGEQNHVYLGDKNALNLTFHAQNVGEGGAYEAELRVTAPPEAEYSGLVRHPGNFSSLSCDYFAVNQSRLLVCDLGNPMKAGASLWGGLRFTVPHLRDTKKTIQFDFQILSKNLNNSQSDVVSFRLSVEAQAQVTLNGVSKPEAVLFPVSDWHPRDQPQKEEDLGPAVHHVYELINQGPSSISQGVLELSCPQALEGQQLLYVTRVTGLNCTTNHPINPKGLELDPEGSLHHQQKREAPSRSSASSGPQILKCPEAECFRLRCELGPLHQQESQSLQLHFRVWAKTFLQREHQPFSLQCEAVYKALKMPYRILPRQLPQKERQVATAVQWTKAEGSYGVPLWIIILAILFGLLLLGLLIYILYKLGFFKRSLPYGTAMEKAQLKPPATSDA
T2 sequence (P05556 21-798, chain 2 of 2): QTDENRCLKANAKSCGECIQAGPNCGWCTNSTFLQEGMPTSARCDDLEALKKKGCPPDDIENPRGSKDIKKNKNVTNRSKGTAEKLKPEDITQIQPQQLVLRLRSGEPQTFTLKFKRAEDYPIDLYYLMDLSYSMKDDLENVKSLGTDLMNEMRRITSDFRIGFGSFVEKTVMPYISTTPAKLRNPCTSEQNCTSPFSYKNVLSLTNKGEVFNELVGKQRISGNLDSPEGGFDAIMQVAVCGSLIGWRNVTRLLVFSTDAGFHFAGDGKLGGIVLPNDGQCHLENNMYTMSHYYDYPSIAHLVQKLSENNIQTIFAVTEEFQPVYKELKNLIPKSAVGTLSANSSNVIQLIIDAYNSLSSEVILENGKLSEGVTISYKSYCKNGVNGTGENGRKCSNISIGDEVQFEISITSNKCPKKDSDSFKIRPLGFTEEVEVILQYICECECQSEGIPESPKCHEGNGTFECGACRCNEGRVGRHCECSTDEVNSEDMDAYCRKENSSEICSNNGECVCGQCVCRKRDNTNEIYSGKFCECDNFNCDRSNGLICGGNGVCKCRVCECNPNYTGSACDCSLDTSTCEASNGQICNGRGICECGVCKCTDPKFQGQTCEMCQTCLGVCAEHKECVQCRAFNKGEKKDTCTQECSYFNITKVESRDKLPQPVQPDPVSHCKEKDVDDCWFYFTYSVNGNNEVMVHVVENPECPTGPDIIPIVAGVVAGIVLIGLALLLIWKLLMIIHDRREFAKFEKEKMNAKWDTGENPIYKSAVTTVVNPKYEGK
human α5β1 integrin, full-length (Millipore CC1027) (human), sequence (P08648 42-1049, chain 1 of 2): as the sequence (P08648 42-1049, chain 1 of 2) above
human α5β1 integrin, full-length (Millipore CC1027) (human), sequence (P05556 21-798, chain 2 of 2, further chain): as the sequence (P05556 21-798, chain 2 of 2) above

In turn, RGD peptide (Sigma-Aldrich, A8052) displayed a percent decrease of the binding of α5β1 integrin to LOXL2 in assay [1] of 24.9%.

B1: LOXL2 N-terminal scavenger receptor cysteine-rich domains SRCR 1-2 (residues 58-302) (domain or fragment, UniProt Q9Y4K0 58-302, looked up)
chain: LRLAGQKRKHSEGRVEVYYDGQWGTVCDDDFSIHAAHVVCRELGYVEAKSWTASSSYGKGEGPIWLDNLHCTGNEATLAACTSNGWGVTDCKHTEDVGVVCSDKRIPGFKFDNSLINQIENLNIQVEDIRIRAILSTYRKRTPVMEGYVEVKEGKTWKQICDKHWTAKNSRVVCGMFGFPGERTYNTKVYKMFASRRKQRYWPFSMDCTGTEAHISSCKLGPQVSLDPMKNVTCENGLPAVVSCV
notes: LOXL2, SRCR domains 1-2, residues 58-302; also called SRCR 1-2 domain; source: expressed as recombinant protein as previously described [62]
On to B1, for which the affinity with SPARC (both partners purified), expressed as Kd, was 21.4 nM.

B2: lysyl oxidase-like 2 (LOXL2), full-length recombinant protein (enzyme, UniProt Q9Y4K0 26-774, looked up)
chain: QYDSWPHYPEYFQQPAPEYHQPQAPANVAKIQLRLAGQKRKHSEGRVEVYYDGQWGTVCDDDFSIHAAHVVCRELGYVEAKSWTASSSYGKGEGPIWLDNLHCTGNEATLAACTSNGWGVTDCKHTEDVGVVCSDKRIPGFKFDNSLINQIENLNIQVEDIRIRAILSTYRKRTPVMEGYVEVKEGKTWKQICDKHWTAKNSRVVCGMFGFPGERTYNTKVYKMFASRRKQRYWPFSMDCTGTEAHISSCKLGPQVSLDPMKNVTCENGLPAVVSCVPGQVFSPDGPSRFRKAYKPEQPLVRLRGGAYIGEGRVEVLKNGEWGTVCDDKWDLVSASVVCRELGFGSAKEAVTGSRLGQGIGPIHLNEIQCTGNEKSIIDCKFNAESQGCNHEEDAGVRCNTPAMGLQKKLRLNGGRNPYEGRVEVLVERNGSLVWGMVCGQNWGIVEAMVVCRQLGLGFASNAFQETWYWHGDVNSNKVVMSGVKCSGTELSLAHCRHDGEDVACPQGGVQYGAGVACSETAPDLVLNAEMVQQTTYLEDRPMFMLQCAMEENCLSASAAQTDPTTGYRRLLRFSSQIHNNGQSDFRPKNGRHAWIWHDCHRHYHSMEVFTHYDLLNLNGTKVAEGHKASFCLEDTECEGDIQKNYECANFGDQGITMGCWDMYRHDIDCQWVDITDVPPGDYLFQVVINPNFEVAESDYSNNIMKCRSRYDGHRIWMYNCHIGGSFSEETEKKFEHFSGLLNNQLSPQ
notes: lysyl oxidase-like 2 (LOXL2), full-length recombinant protein made in the laboratory; As a secreted recombinant protein it probably lacks its signal peptide (surmise); also called full-length LOXL2; soluble LOXL2; source: expressed as recombinant protein as previously described [62]
In the case of B2, in the assay with SPARC, the KD1 (site 1, heterogeneous ligand model) stood at 37.8 nM; the KD2 (site 2, heterogeneous ligand model) was found to be 41.5 nM; the ka1 (site 1, heterogeneous ligand model) amounted to 186000 M⁻¹ s⁻¹; the ka2 (site 2, heterogeneous ligand model) came out at 167000 M⁻¹ s⁻¹. For the same molecule, in the assay with SPARC, the kd1 (site 1, heterogeneous ligand model) came to 0.00622 s⁻¹ and the kd2 (site 2, heterogeneous ligand model) turned out to be 0.00769 s⁻¹. Besides, the binding result in assay [2] was “binds”.

B3: Recombinant human LOXL2 (R&D Systems, 2639-AO) (enzyme, UniProt Q9Y4K0 26-774, looked up)
chain: QYDSWPHYPEYFQQPAPEYHQPQAPANVAKIQLRLAGQKRKHSEGRVEVYYDGQWGTVCDDDFSIHAAHVVCRELGYVEAKSWTASSSYGKGEGPIWLDNLHCTGNEATLAACTSNGWGVTDCKHTEDVGVVCSDKRIPGFKFDNSLINQIENLNIQVEDIRIRAILSTYRKRTPVMEGYVEVKEGKTWKQICDKHWTAKNSRVVCGMFGFPGERTYNTKVYKMFASRRKQRYWPFSMDCTGTEAHISSCKLGPQVSLDPMKNVTCENGLPAVVSCVPGQVFSPDGPSRFRKAYKPEQPLVRLRGGAYIGEGRVEVLKNGEWGTVCDDKWDLVSASVVCRELGFGSAKEAVTGSRLGQGIGPIHLNEIQCTGNEKSIIDCKFNAESQGCNHEEDAGVRCNTPAMGLQKKLRLNGGRNPYEGRVEVLVERNGSLVWGMVCGQNWGIVEAMVVCRQLGLGFASNAFQETWYWHGDVNSNKVVMSGVKCSGTELSLAHCRHDGEDVACPQGGVQYGAGVACSETAPDLVLNAEMVQQTTYLEDRPMFMLQCAMEENCLSASAAQTDPTTGYRRLLRFSSQIHNNGQSDFRPKNGRHAWIWHDCHRHYHSMEVFTHYDLLNLNGTKVAEGHKASFCLEDTECEGDIQKNYECANFGDQGITMGCWDMYRHDIDCQWVDITDVPPGDYLFQVVINPNFEVAESDYSNNIMKCRSRYDGHRIWMYNCHIGGSFSEETEKKFEHFSGLLNNQLSPQ
notes: recombinant human lysyl oxidase-like 2 (LOXL2), commercial protein; also called immobilized LOXL2; source: bought: R&D Systems, BioTechne, 2639-AO
On to B3, for which, in assay [3], the binding result is given as “binds”.

These data come from PMC7794802, “The Interactome of Cancer-Related Lysyl Oxidase and Lysyl Oxidase-Like Proteins” (Cancers, 2020).
